What was measured:
[1] = target: T1, recombinant CD22 extracellular domain; test: ELISA on plates coated with recombinant CD22 extracellular domain (coating 2, 0.2, 0.02 or 0.002 ug/ml per paragraph 227; the sheet does not say which), anti-human IgG-HRP, read at 450 nm
T1 construct: Kept apart from m18, which is cell-surface CD22; also called CD22 (analyte in the BIAcore runs); CD22 ECD
Description: Nunc-Immuno MaxiSorp 96 well plates were coated with 100 μl of 2 μg/ml, 0.2 μg/ml, 0.02 μg/ml or 0.002 μg/ml recombinant CD22 extracellular domain (PeproTech, Inc. catalog number 100-01 in coating solution (sodium bicarbonate in PBS). The plates were covered with plate sealer and incubated at 4° C. overnight. Plates were emptied and the residual liquid tapped out on paper towels. 200 μl washing solution (0.05% Tween-20 in PBS) was added and shaken at 200 RPM for 5 min at room temperature. The plates were emptied and residual liquid tapped out on paper towels. 200 μl blocking solution (2% Carnation milk in PBS) was added and shaken at 200 RPM for one hour at room temperature. Plates were emptied and residual liquid tapped out on paper towels. 100 μl of diluted samples containing VM1000, VM1001, VM1002, VM1003, VM1004, VM1005, VM1006, VM1007, VM1008, VM1009, VM1010, VM1011, VM1012, VM1013, VM1014, and VM1015 antibodies for ELISA were used. The samples were shaken at 200 RPM for one hour at room temperature; plates emptied and residual liquid tapped out on paper towels. 200 μl washing solution (0.05% Tween-20 in PBS) was added, shaken at 200 RPM for 5 min at room temperature; plates emptied and residual liquid tapped out on paper towels. This process was repeated three times. 100 μl of 1:2500 dilution of anti-human IgG conjugated with HRP diluted in block solution (2% Carnation milk in PBS) was added for all samples. 100 μl of 1:2500 dilution of anti-rabbit IgG conjugated with HRP diluted in block solution (2% Carnation milk in PBS) was added for control antibody. The contents were shaken at 200 RPM for one hour at room temperature, plates emptied and residue liquid tapped out on paper towels. 200 μl washing solution (0.05% Tween-20 in PBS) was added, shaken at 200 RPM for 5 min at room temperature; plates emptied and residual liquid tapped out on paper towels. This process was repeated three times. 100 μl TMB substrate solution was added, and incubated at room temperature. The reaction was stopped with 1 N HCl, and the plate read at 450 nm to determine relative binding affinity (FIG. 17).

[2] = target: T1, recombinant CD22 extracellular domain; test: The sheet does not state the method. The column 'KD (nM)' stands beside the confocal data. The values largely repeat FIGURE 18 (SPR on recombinant CD22 extracellular domain), so the target form is taken from there.
Description: BIAcore 3000, GE Healthcare was used to determine binding curves and kinetic parameters. An anti-human Fc (1.8 mg/ml) was diluted to a concentration of 50 ug/ml in NaOAc buffer (10 mM, pH 4.8) and coupled to the carboxymethylated dextran matrix of a CM-5 sensor chip using the manufacturer's amine-coupling chemistry as described in the BIAcore systems manual. Using the surface preparation wizard aiming for 10000RU, the carboxyl groups on the sensor surfaces were first activated with NHS/EDC followed by the addition of the anti-human Fc. The remaining activated groups were blocked by the injection of 1M ethanolamine. Each of the flow cells was coupled individually. Employing these conditions, the four flow cell surfaces containing 7554-9571 RU of anti-human Fc were prepared. In preliminary experiments, it was determine that three injections (15 ul at 30 ul/min) 100 mM H₃PO₄/0.05% CHAPS would efficiently remove the bound immunoglobulin and preserve the binding capacity of the immobilized anti-human Fc.
Experiments were performed on the BIAcore 3000 at 25° C. and a flow rate of 30 ul/min. The antibody candidate was dissolved in HBS (10 mM HEPES with 0.15M NaCl, 3.4 mM EDTA, and 0.05% surfactant P20 at pH 7.4) at 5 ug/ml. The analyte, CD22, was dissolved in HBS at 0.25, 0.125, 0.062, 0.031 and 0.015 ug/ml. 3*30 ul of 5 ug/ml of antibody BA001 was flowed over its respective flow cell followed by injections of 240 ul of each CD22 concentration at 30 ul/min (association phase) and an uninterrupted 1200 seconds of buffer flow (dissociation phase). The surface of the chip was regenerated by three sequential injections of 15 ul each with 100 m M H₃PO₄/0.05% CHAPS. The injections of HBS serve as a reference (blank sensogram) for the subtraction of bulk refractive indices for analysis. Using the 1:1 model in BIAevaluation 4.1, both a local fit and global fit was done for both dissociation (kd, [s−1] and association (ka, [M⁻¹s⁻¹]) and the dissociation constant (KD, [M]) calculated (kd/ka).

T1 sequence (chain, as listed by the source limits assumed): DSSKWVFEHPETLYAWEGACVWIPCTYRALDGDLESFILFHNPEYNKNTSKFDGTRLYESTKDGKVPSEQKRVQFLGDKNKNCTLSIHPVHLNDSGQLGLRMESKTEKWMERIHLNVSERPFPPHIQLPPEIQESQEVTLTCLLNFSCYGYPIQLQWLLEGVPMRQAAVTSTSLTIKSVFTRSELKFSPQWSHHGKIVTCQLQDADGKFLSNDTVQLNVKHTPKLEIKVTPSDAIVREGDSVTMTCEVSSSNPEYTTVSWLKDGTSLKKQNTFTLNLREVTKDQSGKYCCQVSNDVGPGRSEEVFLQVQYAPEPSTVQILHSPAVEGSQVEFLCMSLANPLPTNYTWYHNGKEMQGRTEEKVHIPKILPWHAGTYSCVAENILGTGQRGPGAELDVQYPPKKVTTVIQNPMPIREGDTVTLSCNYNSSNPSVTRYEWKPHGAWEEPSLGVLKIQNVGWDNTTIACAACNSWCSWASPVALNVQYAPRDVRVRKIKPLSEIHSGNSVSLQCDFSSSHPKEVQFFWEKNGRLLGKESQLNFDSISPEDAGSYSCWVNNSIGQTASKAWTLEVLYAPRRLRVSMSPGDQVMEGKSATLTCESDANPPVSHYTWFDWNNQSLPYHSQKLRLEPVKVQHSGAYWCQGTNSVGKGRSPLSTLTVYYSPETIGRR

Row | Binder | ELISA OD 450 [1] | Kd [2] [nM]
1 | VM1006 (antibody, V domains shown, Humanized antibody with human constant region; also called anti-CD22 Mab clone VM1006) VH: QVQLVQSGAEVKKPGASVKVSCKASGYVFTSYWLHWIRQSPSRGLEWLGYINPRNDYTEYNRIFKGRFVFSLDTSVSTAYLQICSLKAEDTAVYYCARRGITTFYWGQG VL: DIQMTQSPSSLSASVGDRVTITCKSSQSVLYSAVEKNYLAWYQQKPGKAPKLLIYWASTRERGIPDRFSGSGSGTDFTLTISRLEPEDFAVYYCKQYLSSWTFGQG | 0.638 | 
2 | VM1007 (antibody, V domains shown, Humanized antibody with human constant region; also called anti-CD22 Mab clone VM1007) VH: QVQLVQSGAEVKKPGASVKVSCKASGYVFTSYWLHWVRQARGQRLEWIGYINPRNDYTEYNRIFKGRVTITADKSTSTAYMELSSLRSEDTAVYYCARRGITTFYWGQG VL: AIQLTQSPSSLSASVGDRVTITCKSSQSVLYSAVEKNYLAWYQQKPGKAPKLLIYWASTRERGVPSRFSGSGSGTDFTFTISSLEAEDAATYYCKQYLSSWTFGQG | 0.538 | 1
3 | VM1000 (antibody, V domains shown, Humanized antibody with human constant region; also called anti-CD22 Mab clone VM1000) VH: QVQLVQSGAEVKKPGASVKVSCKASGYVFTSYWLHWIRQSPSRGLEWLGYINPRNDYTEYNRIFKGRLTISKDTSKNQVVLTMTNMDPVDTATYYCARRGITTFYWGQG VL: EIVLTQSPATLSLSPGERATLSCKSSQSVLYSAVEKNYLAWYQQKPGKAPKLLIYWASTRERGVPSRFSGSGSGTDFTFTISSLQPEDIATYYCKQYLSSWTFGQG | 0.517 | 0.5
4 | VM1002 (antibody, V domains shown, Humanized antibody with human constant region; also called anti-CD22 Mab clone VM1002) VH: EVQLVQSGAEVKKPGESLRISCKGSGYVFTSYWLHWVRQAPGQGLEWMGYINPRNDYTEYNRIFKGRVTITADKSTSTAYMELSSLRSEDTAVYYCARRGITTFYWGQG VL: EIVLTQSPATLSLSPGERATLSCKSSQSVLYSAVEKNYLAWYQQKPGQAPRLLIYWASTRERGIPDRFSGSGSGTDFTLTISRLEPEDFAVYYCKQYLSSWTFGQG | 0.495 | 0.33
5 | VM1004 (antibody, V domains shown, Humanized antibody with human constant region; also called anti-CD22 Mab clone VM1004) VH: EVQLVQSGAEVKKPGATVKISCKVSGYVFTSYWLHWIRQSPSRGLEWLGYINPRNDYTEYNRIFKGRFVFSLDTSVSTAYLQICSLKAEDTAVYYCARRGITTFYWGQG VL: EIVLTQSPATLSLSPGERATLSCKSSQSVLYSAVEKNYLAWYQQKPGKAPKLLIYWASTRERGIPDRFSGSGSGTDFTLTISRLEPEDFAVYYCKQYLSSWTFGQG | 0.444 | 0.8
6 | VM1011 (antibody, V domains shown, Humanized antibody with human constant region; also called anti-CD22 Mab clone VM1011) VH: QVQLQESGPGLVKPSQTLSLTCTVSGYVFTSYWLHWIRQPPGKGLEWIGYINPRNDYTEYNRIFKGRVTITADKSTSTAYMELSSLRSEDTAVYYCARRGITTFYWGQG VL: EIVLTQSPATLSLSPGERATLSCKSSQSVLYSAVEKNYLAWYQQKPGQAPRLLIYWASTRERGIPDRFSGSGSGTDFTLTISRLEPEDFAVYYCKQYLSSWTFGQG | 0.15 | 
7 | VM1001 (antibody, V domains shown, Humanized antibody with human constant region; also called anti-CD22 Mab clone VM1001) VH: QVQLVQSGAEVKKPGASVKVSCKASGYVFTSYWLHWIRQSPSRGLEWLGYINPRNDYTEYNRIFKGRLTISKDTSKNQVVLTMTNMDPVDTATYYCARRGITTFYWGQG VL: EIVLTQSPATLSLSPGERATLSCKSSQSVLYSAVEKNYLAWYQQKPGQAPRLLIYWASTRERGIPDRFSGSGSGTDFTLTISRLEPEDFAVYYCKQYLSSWTFGQG | 0.386 | 0.22
8 | VM1003 (antibody, V domains shown, Humanized antibody with human constant region; also called anti-CD22 Mab clone VM1003) VH: EVQLVQSGAEVKKPGATVKISCKVSGYVFTSYWLHWIRQSPSRGLEWLGYINPRNDYTEYNRIFKGRFVFSLDTSVSTAYLQICSLKAEDTAVYYCARRGITTFYWGQG VL: EIVLTQSPATLSLSPGERATLSCKSSQSVLYSAVEKNYLAWYQQKPGQAPRLLIYWASTRERGIPDRFSGSGSGTDFTLTISRLEPEDFAVYYCKQYLSSWTFGQG | 0.56 | 0.34

Reference: US20150086562A1 (BIOATLA, published 2015)
